The record followed here is patent US20160002326A1 (AbbVie / Abbott, published 2016).

Assay [1] deals with T1, human IL-17A/A homodimer (human, UniProt Q16552 24-155).
T1 sequence: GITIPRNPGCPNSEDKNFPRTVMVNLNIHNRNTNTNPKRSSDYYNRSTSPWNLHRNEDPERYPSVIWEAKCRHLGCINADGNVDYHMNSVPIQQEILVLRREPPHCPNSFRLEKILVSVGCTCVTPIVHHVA
The assay is described as follows: cell-based or functional assay.

Assay [2] addresses T2, human TNF-α (human, UniProt P01375 77-233). The assay is described as follows: cell-based or functional assay.
In assay [3] the target is T3, human IL-17A/F heterodimer (human, UniProt Q16552 24-155; Q96PD4 31-163).
T3 sequence 1: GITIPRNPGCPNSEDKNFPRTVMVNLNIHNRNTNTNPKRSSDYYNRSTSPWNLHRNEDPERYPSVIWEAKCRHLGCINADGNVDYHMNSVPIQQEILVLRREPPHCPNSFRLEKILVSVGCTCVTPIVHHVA
T3 sequence 2: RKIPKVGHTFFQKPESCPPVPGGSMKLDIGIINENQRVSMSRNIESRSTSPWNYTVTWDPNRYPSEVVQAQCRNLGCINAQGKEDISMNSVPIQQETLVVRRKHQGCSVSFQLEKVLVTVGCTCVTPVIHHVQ
The assay is described as follows: cell-based or functional assay.

For the next assay, the target named is T4, Fcγ RIIa, variant 131H (UniProt P12318 36-218, limits assumed).
T4 construct: also called FcγRIIa 131H
T4 sequence (looked up): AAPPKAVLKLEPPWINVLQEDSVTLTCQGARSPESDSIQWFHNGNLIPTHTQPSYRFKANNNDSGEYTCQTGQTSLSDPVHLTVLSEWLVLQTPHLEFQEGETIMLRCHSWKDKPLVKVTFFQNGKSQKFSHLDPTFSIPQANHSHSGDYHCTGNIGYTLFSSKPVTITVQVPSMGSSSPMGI
Put plainly: Biacore. (In general: SPR reads the build-up and loss of mass on a sensor chip optically.)

In assay [4] the target is T5, monkey (Rhesus/Cynomolgus) IL-17 (monkey (Rhesus/Cynomolgus), UniProt F6T3G5 24-155).
T5 sequence: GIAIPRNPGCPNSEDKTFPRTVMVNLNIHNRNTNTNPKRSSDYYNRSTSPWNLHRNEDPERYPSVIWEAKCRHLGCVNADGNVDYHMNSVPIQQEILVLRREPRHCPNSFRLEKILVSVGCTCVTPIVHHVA
The assay is described as follows: cell-based or functional assay.

Assay [5] addresses T6, rabbit TNF (rabbit, UniProt P04924 80-235, limits assumed).
T6 sequence (looked up): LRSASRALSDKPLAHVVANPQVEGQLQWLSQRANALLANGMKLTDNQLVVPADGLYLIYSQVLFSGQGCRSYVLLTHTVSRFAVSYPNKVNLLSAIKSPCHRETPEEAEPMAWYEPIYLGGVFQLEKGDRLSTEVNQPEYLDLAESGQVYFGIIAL
The assay is described as follows: cell-based or functional assay.

Assay [6] has as its target T1, human IL-17A/A homodimer. Put plainly: cell-based or functional assay. The source holds these as a separate data set.
Assay [7] has as its target T7, mouse TNF (mouse, UniProt P06804 80-235).
T7 sequence (looked up): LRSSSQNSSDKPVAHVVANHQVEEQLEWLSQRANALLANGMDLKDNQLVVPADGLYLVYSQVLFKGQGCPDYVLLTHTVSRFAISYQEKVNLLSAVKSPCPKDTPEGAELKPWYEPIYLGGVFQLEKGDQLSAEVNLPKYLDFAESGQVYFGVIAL
Put plainly: cell-based or functional assay.

For a further assay, the target named is T8, mouse IL-17 (mouse, UniProt Q62386 26-158, limits assumed).
T8 sequence (looked up): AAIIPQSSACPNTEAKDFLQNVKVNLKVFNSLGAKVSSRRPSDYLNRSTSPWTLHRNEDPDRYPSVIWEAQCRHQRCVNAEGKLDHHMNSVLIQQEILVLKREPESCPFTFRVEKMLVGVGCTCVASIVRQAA
Put plainly: cell-based or functional assay.

Assay [8] deals with monkey (Rhesus/Cynomolgus) TNF (monkey (Rhesus/Cynomolgus), UniProt P48094 77-233). The assay is described as follows: cell-based or functional assay.
Chain of monkey (Rhesus/Cynomolgus) TNF (P48094 77-233 limits assumed): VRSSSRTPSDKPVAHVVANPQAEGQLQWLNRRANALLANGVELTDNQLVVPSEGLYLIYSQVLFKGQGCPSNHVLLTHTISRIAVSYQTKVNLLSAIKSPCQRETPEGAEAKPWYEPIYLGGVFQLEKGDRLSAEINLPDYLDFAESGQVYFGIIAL
Assay [9] concerns the target T2, human TNF-α. Put plainly: cell-based or functional assay. This is another data set of the same source.
Assay [10] addresses T9, rat TNF (rat, UniProt P16599 80-235).
T9 sequence (looked up): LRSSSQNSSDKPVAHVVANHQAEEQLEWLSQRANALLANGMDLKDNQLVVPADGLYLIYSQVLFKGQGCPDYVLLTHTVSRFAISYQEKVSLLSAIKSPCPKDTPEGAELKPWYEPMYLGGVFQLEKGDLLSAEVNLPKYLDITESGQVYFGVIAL
The assay is described as follows: cell-based or functional assay.

The next assay deals with T10, rat IL-17 (rat, UniProt Q61453 18-150, limits assumed).
T10 sequence (looked up): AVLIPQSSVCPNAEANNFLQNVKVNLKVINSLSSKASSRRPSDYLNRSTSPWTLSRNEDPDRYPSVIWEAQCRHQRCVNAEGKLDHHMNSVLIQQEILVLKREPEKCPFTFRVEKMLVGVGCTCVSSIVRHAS
The assay is described as follows: cell-based or functional assay.

Assay [11] has as its target T6, rabbit TNF. The assay is described as follows: Biacore SPR.
Assay [12] addresses T7, mouse TNF. Put plainly: Biacore SPR.
For assay [13], the target named is T9, rat TNF. The assay is described as follows: Biacore SPR.

T2 sequence (P01375 77-233 limits assumed): as the sequence (P48094 77-233 limits assumed) above, with T44R, N72T, L138R counted along it

B1: ABBV-257 anti-human TNF and IL-17 DVD-Ig binding protein (bispecific antibody, human IgG1, kappa, L234A L235A)
heavy: EVQLVQSGAEVKKPGASVKVSCKASGYTFANYGIIWVRQAPGQGLEWMGWINTYTGKPTYAQKFQGRVTMTTDTSTSTAYMELSSLRSEDTAVYYCARKLFTTMDVTDNAMDYWGQGTTVTVSSGGGGSGGGGSEVQLVQSGAEVKKPGSSVKVSCKASGYTFTDYEIHWVRQAPGQGLEWMGVNDPESGGTFYNQKFDGRVTLTADESTSTAYMELSSLRSEDTAVYYCTRYSKWDSFDGMDYWGQGTTVTVSSASTKGPSVFPLAPSSKSTSGGTAALGCLVKDYFPEPVTVSWNSGALTSGVHTFPAVLQSSGLYSLSSVVTVPSSSLGTQTYICNVNHKPSNTKVDKKVEPKSCDKTHTCPPCPAPEAAGGPSVFLFPPKPKDQLMISRTPEVTCVVVDVSHEDPEVKFNWYVDGVEVHNAKTKPREEQYNSTYRVVSVLTVLHQDWLNGKEYKCKVSNKALPAPIEKTISKAKGQPREPQVYTLPPSREEMTKNQVSLTCLVKGFYPSDIAVEWESNGQPENNYKTTPPVLDSDGSFFLYSKLTVDKSRWQQGNVFSCSVLHEALHNHYTQKSLSLSPGK
light: DIQMTQSPSSLSASVGDRVTITCRASQDISQYLNWYQQKPGKAPKLLIYYTSRLQSGVPSRFSGSGSGTDFTLTISSLQPEDFATYFCQQGNTWPPTFGQGTKLEIKRGGSGGGGSGDIQMTQSPSSLSASVGDRVTITCRASSGIISYIDWFQQKPGKAPKRLIYATFDLASGVPSRFSGSGSGTDYTLTISSLQPEDFATYYCRQVGSYPETFGQGTKLEIKRTVAAPSVFIFPPSDEQLKSGTASVVCLLNNFYPREAKVQWKVDNALQSGNSQESVTEQDSKDSTYSLSSTLTLSKADYEKHKVYACEVTHQGLSSPVTKSFNRGEC
modifications: N-linked glycans on the heavy chain at the asparagine commonly modified on IgG1 antibodies (fucosylated biantennary oligosaccharides with 0, 1 or 2 galactose residues)
notes: It says the constant region carries L234A, L235A and also T250Q and M428L; also called Anti-IL-17/TNF DVD-Ig Protein
B1: the entries for the “Mean IC50, inhibition of IL-17 dependent induction of IL-6 in fibroblasts” value (in the assay with human IL-17A/A homodimer [1]; in [3]) were 26 pM and 110 pM, respectively. In the assay with human TNF-α [2], the “Mean IC50, inhibition of TNF-induced lethality of L929 cells” value was 25 pM. Besides, the binding result is given as “no binding” with Fcγ RIIa, variant 131H; “no binding (tested: at concentrations up to 500 nM of rTNF)” with rabbit TNF [11]; “no binding (tested: at concentrations up to 500 nM of rTNF)” in the assay with mouse TNF [12]; “no binding (tested: at concentrations up to 500 nM of rTNF)” with rat TNF [13]. The “IC50, in vitro neutralization assay (In-Vitro Potency)” value in assay [4] was 32 pM; in the assay with rabbit TNF [5], more than 1 µM; in the assay with human IL-17A/A homodimer [6], 26 pM; with mouse TNF [7], more than 1 µM; with mouse IL-17 it was 239 pM; in assay [8] it was 25 pM. For the same molecule, the entries for the “IC50, in vitro neutralization assay (In-Vitro Potency)” value with human TNF-α [9], in the assay with rat TNF [10] and with rat IL-17 were 25 pM, more than 1 µM and 135 pM, respectively.
